± gives the standard deviation of the averaged measurements.
Assay: total protein half-life in vivo (active degradation + dilution); higher = more stable protein
[1] = E. coli NCM3722 delta-clpP, growth: N-lim chemostat, doubling time 6 h
[2] = E. coli NCM3722 delta-hslV, growth: N-lim chemostat, doubling time 6 h
[3] = E. coli NCM3722 delta-lon, growth: N-lim chemostat, doubling time 6 h
[4] = E. coli NCM3722 delta-smpB, growth: N-lim chemostat, doubling time 6 h
[5] = wild type E. coli NCM3722, growth: C-lim chemostat, doubling time 3 h
[6] = wild type E. coli NCM3722, growth: C-lim chemostat, doubling time 6 h
[7] = wild type E. coli NCM3722, growth: C-lim chemostat, doubling time 12 h
[8] = wild type E. coli NCM3722, growth: N-lim chemostat, doubling time 6 h
[9] = wild type E. coli NCM3722, growth: N-lim chemostat, doubling time 12 h
[10] = wild type E. coli NCM3722, growth: P-lim chemostat, doubling time 6 h
[11] = E. coli NCM3722 delta-clpP delta-lon delta-hslV, growth: N-lim chemostat, doubling time 6 h
[12] = wild type E. coli NCM3722, growth: P-lim chemostat, doubling time 12 h

Sequence	total protein half-life in vivo [1]	total protein half-life in vivo [2]	total protein half-life in vivo [3]	total protein half-life in vivo [4]	total protein half-life in vivo [5]	total protein half-life in vivo [6]	total protein half-life in vivo [7]	total protein half-life in vivo [8]	total protein half-life in vivo [9]	total protein half-life in vivo [10]	total protein half-life in vivo [11]	total protein half-life in vivo [12]
MNSHNITNESLALALMLVVVAILISHKEKLALEKDILWSVGRAIIQLIIVGYVLKYIFSVDDASLTLLMVLFICFNAAWNAQKRSKYIAKAFISSFIAITVGAGITLAVLILSGSIEFIPMQVIPIAGMIAGNAMVAVGLCYNNLGQRVISEQQQIQEKLSLGATPKQASAILIRDSIRAALIPTVDSAKTVGLVSLPGMMSGLIFAGIDPVKAIKYQIMVTFMLLSTASLSTIIACYLTYRKFYNSRHQLVVTQLKKK	6.44 ± 0.17 h	6 ± 0.27 h	5.893 ± 0.034 h	5.86 ± 0.42 h	3.19 ± 0.54 h	5.5591 ± 0.0054 h	9.93 ± 4.5 h	5.87 ± 0.81 h	8.27 ± 3 h	6.28 ± 0.1 h		
MNSIFTEENLLAFTTAARFGSFSKAAEELGLTTSAISYTIKRMETGLDVVLFTRSTRSIELTESGRYFFRKATDLLNDFYAIKRRIDTISQGIEARVRICINQLLYTPKHTARLLQVLKKQFPTCQITVTTEVYNGVWDAIINNQANIAIGAPDTLLDGGGIDYTEIGAIRWAFAIAPDHPLAFVPEPIAESQLRLYPNIMVEDTAHTINKKVGWLLHGQESILVPDFNTKCQCQILGEGIGFLPDYMVREAMTQSLLVTRQIHNPRQDSRMLLATQHSATGQVTQWIKKQFAPNGILTGIYQDLLHREN											5.9 h	
MNSLTTHYRRSQLIALPVPGGKAKVEYCYAVNVPGDREIVTHSFAEWAVGDFNRQKETVLCDKLTAGSKITTECPSESFVGSRKHNGLSTSAKVMSMNASARSNSFVVNSGK											1.84 h	
MNTALAQQIANEGGVEAWMIAQQHKSLLRFLTCGSVDDGKSTLIGRLLHDTRQIYEDQLSSLHNDSKRHGTQGEKLDLALLVDGLQAEREQGITIDVAYRYFSTEKRKFIIADTPGHEQYTRNMATGASTCELAILLIDARKGVLDQTRRHSFISTLLGIKHLVVAINKMDLVDYSEETFTRIREDYLTFAGQLPGNLDIRFVPLSALEGDNVASQSESMPWYSGPTLLEVLETVEIQRVVDAQPMRFPVQYVNRPNLDFRGYAGTLASGRVEVGQRVKVLPSGVESNVARIVTFDGDREEAFAGEAITLVLTDEIDISRGDLLLAADEALPAVQSASVDVVWMAEQPLSPGQSYDIKIAGKKTRARVDGIRYQVDINNLTQREVENLPLNGIGLVDLTFDEPLVLDRYQQNPVTGGLIFIDRLSNVTVGAGMVHEPVSQATAAPSEFSAFELELNALVRRHFPHWGARDLLGDK	4.67 ± 0.42 h	1.18 ± 0.2 h	1.23 ± 0.018 h	1.13 ± 0.045 h	1.58 ± 0.051 h	1.61 ± 0.17 h	2.08 ± 0.23 h	1.29 ± 0.057 h	1.39 ± 0.11 h	1.67 ± 0.47 h	4.99 ± 0.27 h	2.32 ± 0.57 h
MNTDTFMCSSDEKQTRSPLSLYSEYQRMEIEFRAPHIMPTSHWHGQVEVNVPFDGDVEYLINNEKVNINQGHITLFWACTPHQLTDTGTCQSMAIFNLPMHLFLSWPLDKDLINHVTHGMVIKSLATQQLSPFEVRRWQQELNSPNEQIRQLAIDEIGLMLKRFSLSGWEPILVNKTSRTHKNSVSRHAQFYVSQMLGFIAENYDQALTINDVAEHVKLNANYAMGIFQRVMQLTMKQYITAMRINHVRALLSDTDKSILDIALTAGFRSSSRFYSTFGKYVGMSPQQYRKLSQQRRQTFPG [P0ACH8]	2.09 ± 0.21 h	2.5 h		1.89 h	2.14 ± 0.34 h	3.43 ± 0.17 h	4.03 ± 0.28 h					4.99 ± 1.6 h
MNTFSQVWVFSDTPSRLPELMNGAQALANQINTFVLNDADGAQAIQLGANHVWKLNGKPDDRMIEDYAGVMADTIRQHGADGLVLLPNTRRGKLLAAKLGYRLKAAVSNDASTVSVQDGKATVKHMVYGGLAIGEERIATPYAVLTISSGTFDAAQPDASRTGETHTVEWQAPAVAITRTATQARQSNSVDLDKARLVVSVGRGIGSKENIALAEQLCKAIGAELACSRPVAENEKWMEHERYVGISNLMLKPELYLAVGISGQIQHMVGANASQTIFAINKDKNAPIFQYADYGIVGDAVKILPALTAALAR					2.87 ± 0.035 h	5.9 h	8.89 ± 0.4 h					
MNTLLLLAALSSQITFNTTQQGDVYTIIPEVTLTQSCLCRVQILSLREGSSGQSQTKQEKTLSLPANQPIALTKLSLNISPDDRVKIVVTVSDGQSLHLSQQWPPSSEKS	3.33 h			3.31 ± 0.35 h	2.3 h		5.97 ± 1.4 h	4.1 h	6.87 ± 0.16 h	4.19 h	4.26 ± 0.3 h	7.71 ± 0.17 h
MNTLPEHSCDVLIIGSGAAGLSLALRLADQHQVIVLSKGPVTEGSTFYAQGGIAAVFDETDSIDSHVEDTLIAGAGICDRHAVEFVASNARSCVQWLIDQGVLFDTHIQPNGEESYHLTREGGHSHRRILHAADATGREVETTLVSKALNHPNIRVLERSNAVDLIVSDKIGLPGTRRVVGAWVWNRNKETVETCHAKAVVLATGGASKVYQYTTNPDISSGDGIAMAWRAGCRVANLEFNQFHPTALYHPQARNFLLTEALRGEGAYLKRPDGTRFMPDFDERGELAPRDIVARAIDHEMKRLGADCMFLDISHKPADFIRQHFPMIYEKLLGLGIDLTQEPVPIVPAAHYTCGGVMVDDHGRTDVEGLYAIGEVSYTGLHGANRMASNSLLECLVYGWSAAEDITRRMPYAHDISTLPPWDESRVENPDERVVIQHNWHELRLFMWDYVGIVRTTKRLERALRRITMLQQEIDEYYAHFRVSNNLLELRNLVQVAELIVRCAMMRKESRGLHFTLDYPELLTHSGPSILSPGNHYINR	2.44 ± 0.11 h	2.28 ± 0.26 h	4.14 ± 1.7 h	2.39 ± 0.22 h	2.68 ± 0.063 h	4.41 ± 0.59 h	8.41 ± 0.56 h	2.58 ± 0.22 h	3.51 ± 0.061 h	4.69 ± 0.27 h	4 ± 0.14 h	8.21 ± 0.71 h
MNTLTFLLSTVIELYTMVLLLRIWMQWAHCDFYNPFSQFVVKVTQPIIGPLRRVIPAMGPIDSASLLVAYILSFIKAIVLFKVVTFLPIIWIAGLLILLKTIGLLIFWVLLVMAIMSWVSQGRSPIEYVLIQLADPLLRPIRRLLPAMGGIDFSPMILVLLLYVINMGVAEVLQATGNMLLPGLWMAL		5.6 h	6.12 h		2.92 h		10.6 h			5.07 h	6.46 h	8.69 h

Reference: the supplement of paper PMC11246515
